We go through 22 sequences from the DeepSol protein solubility set.

The nature of this data set: soluble on expression in E. coli; label from the status in PepcDB or PDB records.
With “MQLDVYGYVVETLYLAHQSGVARCGDTAVLHQRLVEHLAERWQMPDEGIWEVRGERRHFVHSKVMAWAVVDRTIRLVEAGALDAGLCALMELREAIRHEVCTRGFEP”, the “soluble on expression in E. coli” value is recorded as “not soluble”.

In the case of “MSLAVFAARKWKYNEDKMMTIVRIDAEARWSDVVIHNNTLYYTGVPENLDADAFEQTANTLAQIDAVLEKQGSNKSSILDATIFLADKNDFAAMNKAWDAWVVAGHAPVRCTVQAGLMNPKYKVEIKIVAAVEGHHHHHH”, the “soluble on expression in E. coli” value is listed as “soluble”.

Turning to “MANLKSLPVGDKAPEVVHMVIEVPRGSGNKYEYDPDLGAIKLDRVLPGAQFYPGDYGFIPSTLAEDGDPLDGLVLSTYPLLPGVVVEVRVVGLLLMEDEKGGDAKVIGVVAEDQRLDHIQDIGDVPEGVKQEIQHFFETYKALEAKKGKWVKVTGWRDRKAALEEVRACIARYKG”, the “soluble on expression in E. coli” value was “soluble”.

Turning to “MHAFPLTLDNRLAEALPLWRNLARTDRAPRRNIDLADWKADWRELIAALDRFSRSHGYRQPFAAQGHAALENAWAWGQAAENASTLLLKAIDRGLAGAELRSIYLETAALWLDYSRLLGAARDSLREQGEVDFETAPALAPRTGQYPFALQLLAMGVLLDAQELIPALVEEVLQFDTDRLLDYLGAAALGLTSASEETFHPRPFGQLRAFFEEADGSDAQALAPYLQSQYREFFQLSPKAQKKTRRLTGPYAWGWWAMEVSALGVLYGWDDGVLRASPHYLGDLVDYARARGDA”, the “soluble on expression in E. coli” value is “soluble”.

Regarding “MLHLVLYQPEIPQNAGNVARTAAALGWPLHLIRPLGFLLSSPKLKRAGLDYWPHVDLRLHDSFAAFLEALPRGARVFAFSARGEASLYEARFREGDYLLFGPESRGLPEEVLARFPTLKIPMPGPVRSLNLAVAVGVAAYEAYRQLTGR”, the “soluble on expression in E. coli” value was “soluble”.

On to “MSLRYTKEQCTAAEAQRLAQEIAFGPVVFQVSRLMLKFGIFQLLSGKREGYTLQEISGRTGLTRYAAQVLLEASLTIGTILLEEDRYVLAKAGWFLLNDKMARVNMEFNHDVNYQGLFHLEEALLNGRPEGLKVFGEWPTIYEGLSQLPEQVQKSWFGFDHFYSDQSFGKALEIVFSHHPKRLLDIGGNTGKWATQCVQYNKEVEVTIVDLPQQLEMMRKQTAGLSGSERIHGHGANLLDRDVPFPTGFDAVWMSQFLDCFSEEEVISILTRVAQSIGKDSKVYIMETLWDRQRYETASYCLTQISLYFTAMANGNSKMFHSDDLIRCIENAGLEVEEIQDNIGLGHSILQCRLKEGHHHHHH”, for which the “soluble on expression in E. coli” value is “soluble”.

Regarding “MGSDKIHHHHHHNGPIVKGSKNYITKKENLEHFNDISMSGSANIIYQQDSSSRIEIYGSDNIVELLETKVNGKTLNIKFKKNVNIIDKGKLEIKVFSPDLNGLTLNGSGGILFANGIHTEGDLKVTINGSGNLGGSTFDTGHLAISIHGSGDVRLKQIDSKTCSASISGSGNITLDGMTGAAKYNISGSGNIKAADLEATDVYAGISGSGNISCFVNGKLGGHVSGSGNVAYKGNPQAIDFPHKKLRKLD”, the “soluble on expression in E. coli” value is “not soluble”.

With “MPSWREKHEKIVQSKILVIGAGGIGCELLKNLAVTGFRKVHVIDLDTIDISNLNRQFLFRKEHVSSSKAATATQVVKQFCPQIELTFDHDSIFEKKYNMEFFQAYDIVLNALDNRAARNYVNRMCHAANRPLIDSGSGGYFGQVSVIMRGKTECYECVDKPVQQTTYPGCTIRNTPSEHIHCTVWAKHVFNQLFGEVDIDDDVSPDMDAVDPDNTEAVTTEKEKEAMKEEPAPVGTRQWAESVDYDAAKVFDKLFLHDIEYLCKMEHLWKQRKRPSPLEFHTASSTGGEPQSLCDAQRDDTSIWTLSTCAKVFSTCIQELLEQIRAEPDVKLAFDKDHAIIMSFVAACANIRAKIFGIPMKSQFDIKAMAGNIIPAIASTNAIVAGIIVTEAVRVIEGSTVICNSSIATTQSNPRGRVRFYGFFN”, the “soluble on expression in E. coli” value is “not soluble”.

Take “MGSDKIHHHHHHAVVSCDSILGEEEVDCSVEYRVKFKYDYNMKYADAFSREVGTVTLYAFDDNGKLVYQKTEEGDVLGEEGYTMKVDLEPGDYHLVTWAGLNDEASFSVPLVTAGESSLDELQCRMDRLYSRAADGTAVVNSKLSALWHGEVTKQSFSRAASSQVVTVPLVKNTNTIRIILQQMDGVTVEVDKFEFTITDDNGLMNYDNKLLEDETLTYYPYYRMQGGTDMGIRADGDAEDSNISVAIAQITVGRLVVENNPRLTITNKETGEPVLSIPLVKYLLLTEAEGHEMTNQEYLDRQDEYNMTFFLDESMKWINTSIIINDWVVRFNELDM”: the “soluble on expression in E. coli” value is recorded as “not soluble”.

On to “SLWASADAIQQKLADLEKRSGGRLGVALINTADDSQTLYRGDERFAMCSTGKVMAAAAVLKQSESNPEVVNKRLEIKKSDLVVWSPITEKHLQSGMTLAELSAAALQYSDNTAMNKMISYLGGPEKVTAFAQSIGDVTFRLDRTEPALNSAIPGDKRDTTTPLAMAESLRKLTLGNALGEQQRAQLVTWLKGNTTGGQSIRAGLPASWAVGDKTGAGDYGTTNDIAVIWPENHAPLVLVTYFTQPQQDAKSRKEVLAAAAKIVTEGL”, for which the “soluble on expression in E. coli” value is given as “soluble”.

Take “MSLGAALSDTNYAVIYDLHSHTTASDGLLTPETLVHRAVEMRVGTLAITDHDTTAAIPAAREEISRSGLALNLIPGVEISTVWENHEIHIVGLNIDIAHPAMRDFLAQQTERRQARGRLIAERLEKAHIPGAWEGALRLANGGAVTRGHFARFLVECGKAATMADVFKKYLARGKTGYVPPQWCTIEQAIDVIHHSGGKAVLAHPGRYDLSAKWLKRLVAHFADHHGDAMEVAQCQQSPNERTQLATLARQHHLWASLGSDFHQPCPWIELGRKLWLPAGVEGVWQTWEQPQISEGHHHHHH”: the “soluble on expression in E. coli” value is given as “soluble”.

Take “MGSDKIHHHHHHMLKKYLISLDKDIQRRELFFSQKNTEDFQVFSAINTMQKDWDELAAIFNIEQFKAHYFRNVTKGEIGCTLSHLSVYQKIVEDNDIAEDSYALVCEDDALFHSDFQQNLTALLSEKLEAEIILLGQSKINDFNDFDLEINYPTTFSFLCKKTGDVNYAFPYKSYFAGTVGYLIKKSAARRFIQQISQNKPFWLADDFLLFEQNFNIRNKVVRPLIVIENPVLISNLESVRGSLSNNLLKKLMKYPLKKIFAIKKNLAN”: the “soluble on expression in E. coli” value was “not soluble”.

Regarding “MKIRQEKPAEYQAVERLTYQAFKELNLTENWRPTEHFIVHLLRESADFIPELSLVSETDQGKLTGHIMSSKAKLRLPDHTEKAVLTVGPLSVHPEAQNTGVGSALIKHSVQKAKELGIGGLIILGHPTYYTKFGFVPATTFQITLPEKETSEALLALELLPGYFGTSGGEWHFSTCFAYPETHPAELEAFEAELGINE”, the “soluble on expression in E. coli” value is reported as “not soluble”.

As to “SLEGWGRGLAMFYIRRVETPEGLVMVLVTDEDVMERAVYDEERGVRIIVSRSFYGGSLGTEADAIKTIEKADIIVLTGEKSVSIGVRMGLVNPDSVLEVKGIKQVQVFKFSY”, the “soluble on expression in E. coli” value is “soluble”.

“DRPFKVGDWIRSPDRQIEGTVERIGWRMTSIRTFDKRPLYVPNSVFSNIVVENPSRMLNRRIYEVVGLRYDDADKVPEIITAVREMLKNHKDIDTRQT”: the “soluble on expression in E. coli” value was “not soluble”.

As for “MDKFRVQGRTRLSGEVTISGAKNAALPILFAALLAEEPVELQNVPKLKDIDTTIKLLSQLGTKIERNNGSVFVDASAVNEFCAPYDLVKTMRASIWALGPLVARFGQGQVSLPGGCAIGARPVDLHITGLEQLGAEIKLEEGYVKASVNGRLKGAHIVMDKVSVGATVTIMSAATLAEGTTVIENAAREPEIVDTANFLNTLGAKISGAGTDRITIEGVTRLGGGVYRVLPDRIETGTFLVAAAISGGKVVCRQTRPDTLDAVLAKLREAGADIEVGDDWISLDMQGKRPKAITFRTAPHPGFPTDMQAQFSLLNLVAEGTGVITETIFENRFMHVPELIRMGAHAEIESNTVICYGVEQLSGAQVMATDLRASASLVLAGCIAEGVTIVDRIYHIDRGYERIEDKLRALGAKIERVKGE”, the “soluble on expression in E. coli” value is “not soluble”.

Regarding “MKLVRPQKISDQVLSVLEERIAEGVYAEGGKIPPERVLAEEFGVSRPSVRSALNVLVARQVLEARQGDGYYVSVKPQQDFLQSWQELLGKHSNWEQDVFDFSCHIEGCMAALAAERRTDADLKRIGFWLEKFEEACESGNLEHQSEADVSFHQTIADAAHNLLFSHLSGGLLKMLYRQTRSSLIYLNQEEDPRPKLMAQHRVLYEAISNRRPGEASEAAKAHLNYVASSILKDREYQSRNRHADTLAQNDLKRVQDWAV”, the “soluble on expression in E. coli” value is “soluble”.

Take “MQERHTEQDYRALLIADTPIIDVRAPIEFEHGAMPAAINLPLMNNDERAAVGTCYKQQGSDAALALGHKLVAGEIRQQRMDAWRAACLQNPQGILCCARGGQRSHIVQSWLHAAGIDYPLVEGGYKALRQTAIQATIELAQKPIVLIGGCTGSGKTLLVQQQPNGVDLEGLARHRGSAFGRTLQPQLSQASFENLLAAEMLKTDARQNLRLWVLEDESRMIGSNHLPECLRERMTQAAIAVVEDPFEIRLERLNEEYFLRMHHDFTHAYGDEQGWQEYCEYLHHGLSAIKRRLGLQRYNELAARLDAALTTQLTTGSTDGHLAWLVPLLEEYYDPMYRYQLEKKAEKVVFRGEWAEVAEWVKAR”: the “soluble on expression in E. coli” value is “soluble”.

For “EKRVRRTRSLVEVLNVDPETGDLGINEIFNWYPSEDGFLKVGDSHIMQEIMHVRGWDSGQLRGEMENRRKILTYMYEKNMRSYIQVSLVVQAYQSYPKMVMEAIENNILQGMIQDMVA”, the “soluble on expression in E. coli” value is listed as “not soluble”.

With “MGSSHHHHHHSSGRENLYFQGHMNPNFLDFEQPIADLQAKIEELRLVGNDNALNISDEISRLQDKSKALTENIFGNLSSWQIAQLARHPKRPYTLDYIGYLFSDFEELHGDRHFADDPAIVGGVARLDGSPVMVIGHQKGREVREKVRRNFGMPRPEGYRKACRLMEMAERFKMPILTFIDTPGAYPGIDAEERGQSEAIAWNLRVMARLKTPIIATVIGEGGSGGALAIGVCDQLNMLQYSTYSVISPEGCASILWKTAEKAPEAAEAMGITAERLKGLGIVDKVIDEPLGGAHRDPASMAESIRGELLAQLKMLQGLEMGELLERRYDRLMSYGAP”, the “soluble on expression in E. coli” value is “soluble”.

Take “MLRRCSVLLNDPPLVSGGPVVGLMRDTGTRTTIRPSIMDAQIAQSALEVKMSSLLAREMQAEKMEAEREPPLKRKWVKAPVSQLSTSLSRRDWFRLMSFNMMTDAWGPGHTTPVEAVRVRVPEFTRNPECDDPNACCDYDPSIDKEFPPFLTPEHRRKHLVELLRCYDPDIACLNEVKRTFFNTELWRYVRFLGYGTLYQSSRGAQVRALRKGDNAAAPSNQGKIAEEEDIGNVLLFHKGRFFPLMMPGRDIGQRFHFAHFVGMRDKVTNMTLYVACVQLTAGATAEAADVRLHEARQVLTILDALGRNDADRSHQSHIVCGDLNNQADDEPCVELLRDRFFSTHDLVGGPRWTAWHYRDDARAAAYDTYYTKNVEQAHRSDKAYQAEEEIHRFRRKDAGGYHGVFSKVRLVRDEIAARAHKKQQQQLTTPKTAPEVATPPPADTVAAAPAPSPASAPAPSDTAVRVDQLALLKESRKAKGITYNTQDFIFYDPSTLALHQVLDVPEDEEVNEAQLFPNHKLPSHHLPLFIDISWIDSFPDVAARTLKE”: the “soluble on expression in E. coli” value was “not soluble”.

Consider “MASIKLKFRPSSVKGKKGVLSYQIIHYRLTRLIKTSYRIMPSEWDDSTGSLLISTQSECKARLLLIRDQTNWEMTRLQGIINDLERTGVEYTIDDIVASFRKIPSVESVFNFMQRCINKLERQKRGRTAEGYTSTMNSFIQFRKNEDLSFEAFDSELMEMYEAYLKEKGLVKNSTSYYMRIWRSVYNLAVEQGYTTDKKPFKHVYTGIDKTVKRAVPFKIIKMIKELDLSFEPQLELARDIFLFSFYTRGMSFIDMAHLKKSNLQNGILTYSRKKTGQRLTILWEELMQEIVDKYKDDTSEYLLPILRYCDINDRKQYKLRAKQIGRGLNKIGLRLELKAPLTFYVARHSWASIAQDRKVSTDIIREGLGHDNEKTTHIYLASISTSQIDRANQIILRGL”, for which the “soluble on expression in E. coli” value is reported as “not soluble”.
